This passage reports percent FRET-positive cells and PPARγ-dependent transactivation (PPRE reporter p(AOX)3-TK-Luc) in HEK293T cells, 1 µM rosiglitazone 24 h against DMSO results from article PMC6735382.

Assay [1] concerns the target Clover-PPARγ1 (human peroxisome proliferator-activated receptor gamma isoform 1, N-terminally labeled with Clover) (human) (UniProt P37231). Description: FRET or BRET; flow cytometry-based FRET (Clover donor, mRuby2 acceptor) in living, stably transduced HEK293T cells; percent FRET-positive among Clover/mRuby2-double positive cells and FRET efficiency from fluorescence medians; N-CoR2 WT cells also treated 24 h with DMSO, 1 µM rosiglitazone, 10 µM GW9662 or both. On the technique in general: In BRET a luciferase serves as donor, and the signal depends on an acceptor being close.
UniProt P37231, sequence (P37231 29-505): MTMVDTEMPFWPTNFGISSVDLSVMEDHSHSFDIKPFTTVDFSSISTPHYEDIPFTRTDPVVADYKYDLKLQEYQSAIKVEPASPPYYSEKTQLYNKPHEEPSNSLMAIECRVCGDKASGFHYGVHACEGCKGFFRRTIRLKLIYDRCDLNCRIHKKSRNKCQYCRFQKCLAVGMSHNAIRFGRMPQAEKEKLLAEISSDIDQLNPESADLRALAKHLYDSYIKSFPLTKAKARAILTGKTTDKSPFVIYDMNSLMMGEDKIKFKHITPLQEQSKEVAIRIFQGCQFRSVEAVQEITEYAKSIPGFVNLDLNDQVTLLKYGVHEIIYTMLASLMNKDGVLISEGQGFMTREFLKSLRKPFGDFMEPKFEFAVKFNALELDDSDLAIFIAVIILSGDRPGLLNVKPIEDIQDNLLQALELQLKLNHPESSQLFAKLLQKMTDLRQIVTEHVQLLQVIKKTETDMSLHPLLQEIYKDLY

For assay [2] the target is unchanged.

Take “N-CoR2 WT-mRuby2 (N-terminally truncated human nuclear receptor co-repressor 2 with ID2 and ID1, C-terminally labeled with mRuby2) (domain or fragment)”: in assay [1], the percent FRET-positive cells turned out to be 70%. Also, the PPARγ-dependent transactivation (PPRE reporter p(AOX)3-TK-Luc) in HEK293T cells, 1 µM rosiglitazone 24 h against DMSO in assay [2] is 3.5 fold.
